Source: patent US20260115255A1
Like-named read-outs stand apart in the source and are kept apart here.

Columns and labels:
[1] = target: FcγRIIIa V158 (human) (UniProt P08637); experiment: SPR; ratio of affinity (1/Kd) for FcγRIIIa V158 to affinity for FcγRIIb
[2] = target: FcγRIIIa F158 (human) (UniProt P08637); experiment: SPR; ratio of affinity (1/Kd) for FcγRIIIa F158 to affinity for FcγRIIb
[3] = target: IL-2/IL-15Rβγ on kit225 cells (UniProt P14784); experiment: cell-based or functional assay
Chain of IL-2/IL-15Rβγ on kit225 cells (P14784 27-551 limits assumed, chain 1 of 2): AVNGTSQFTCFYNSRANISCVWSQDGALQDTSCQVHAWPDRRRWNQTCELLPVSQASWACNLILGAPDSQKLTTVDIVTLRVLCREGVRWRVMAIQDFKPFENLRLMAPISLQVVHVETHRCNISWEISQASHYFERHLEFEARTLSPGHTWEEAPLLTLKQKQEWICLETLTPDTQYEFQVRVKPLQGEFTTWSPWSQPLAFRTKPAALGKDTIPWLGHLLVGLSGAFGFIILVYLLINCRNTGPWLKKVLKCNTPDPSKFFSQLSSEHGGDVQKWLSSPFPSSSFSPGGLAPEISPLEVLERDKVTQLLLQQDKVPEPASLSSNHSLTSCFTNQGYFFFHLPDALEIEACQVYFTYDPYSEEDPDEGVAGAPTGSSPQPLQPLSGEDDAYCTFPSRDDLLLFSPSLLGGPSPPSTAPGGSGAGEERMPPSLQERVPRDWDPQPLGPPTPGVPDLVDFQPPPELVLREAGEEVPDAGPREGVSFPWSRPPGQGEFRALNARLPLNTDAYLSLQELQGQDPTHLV
Chain of IL-2/IL-15Rβγ on kit225 cells (P31785 23-369 limits assumed, chain 2 of 2, further chain): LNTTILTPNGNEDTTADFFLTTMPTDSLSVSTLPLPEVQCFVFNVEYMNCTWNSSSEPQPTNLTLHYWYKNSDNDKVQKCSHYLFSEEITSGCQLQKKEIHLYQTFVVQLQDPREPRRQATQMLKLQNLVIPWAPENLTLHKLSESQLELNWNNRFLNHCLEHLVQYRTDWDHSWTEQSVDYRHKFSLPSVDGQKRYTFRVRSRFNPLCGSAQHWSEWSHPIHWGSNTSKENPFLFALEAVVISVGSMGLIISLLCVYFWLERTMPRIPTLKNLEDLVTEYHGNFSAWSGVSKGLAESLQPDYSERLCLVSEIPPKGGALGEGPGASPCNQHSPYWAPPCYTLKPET

[4] = target: IL-2/IL-15Rβγ on kit225 cells (UniProt P14784); experiment: cell-based or functional assay; remark: listed apart in the source
[5] = target: PD-1 on PD-1 Effector Cells (UniProt Q15116); experiment: cell-based or functional assay
Chain of PD-1 on PD-1 Effector Cells (Q15116 25-288 limits assumed): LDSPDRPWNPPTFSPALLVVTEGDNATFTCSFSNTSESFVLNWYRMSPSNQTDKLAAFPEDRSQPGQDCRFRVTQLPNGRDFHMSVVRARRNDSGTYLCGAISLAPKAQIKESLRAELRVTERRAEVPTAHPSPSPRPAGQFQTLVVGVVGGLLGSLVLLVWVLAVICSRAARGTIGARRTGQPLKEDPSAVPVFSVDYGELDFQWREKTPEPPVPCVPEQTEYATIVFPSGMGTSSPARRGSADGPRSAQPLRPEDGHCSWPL

## Zolbetuximab (antibody)
[1]
  A/I (V158): 161
[2]
  A/I (F158): 32.9

## SOT201 wt (with RLI2AQ)
[3]
  EC50 kit225 cells: 0.249 nM
  Relative potency to SOT101: 14.4%

## PD1-IL2v
[3]
  EC50 kit225 cells: 3.02 nM
  Relative potency to SOT101: 1.19%
[4]
  EC50 kit225 cells: 3.94 nM
  EC50 on kit225 cells: 3.02 nM
  Relative potency to SOT201: 455%
[5]
  EC50, PD-1/PD-L1 Blockade Bioassay: 4.57 nM
  Relative potency vs Keytruda: 38.6%
